# Ends that are not written are not given here.
# Assays:
# [1] = Ca2+ binding isotherm (Ca ion selective electrode) fitted with semi-empirical binding model; settings: from isotherm fit
# Text: To model the chemical species in the OPN 1-149 nanocluster solution requires the calculation of Ca ion binding to the free peptide at any pH in the range 5.0-8.0. A semi-empirical model was used to describe the binding isotherms obtained previously for the β-casein 1-25 phosphopeptide in this pH range and the same model was adapted to fit the binding isotherm of OPN 1-149 measured at pH 7.0. The rescaled model was then used to predict binding at any other value of the pH. Binding of Ca ions to the β-casein 1-25 peptide is predominantly to 4 phosphorylated residues and, to a lesser extent, to 7 Glu residues and the C-terminus.
# Fitting of the experimental isotherms was done to an equation of the form
# where the summation is over all binding sites with Ca ion association constants Ka,i. The function Ni(pH) describes the number of sites of type i as a function of pH and φi is the degree of phosphorylation. It was assumed, that all the phosphorylated sites had the average degree of phosphorylation φ. The number of dianionic phosphoseryl sites at a given pH is given by
# The binding behaviour of β-casein has shown that one Ca ion is bound much more strongly than the rest, so the model for binding to the phosphate dianionic groups allowed for two pKs and two Ca ion association constants. The phosphorylated sites have a reduced affinity for Ca ions when they become protonated and were treated as having the same low affinity as the carboxyl groups. […]
# The Ca^2+ binding isotherm of peptides recovered from fraction F3a was determined by measuring the concentration of free Ca ions with a Ca ion selective electrode after successive small additions of a stock solution of 100 mM Ca(NO3)2 to a solution containing 25 mg ml^−1 of F3a, buffered to pH 7.0 with 20 mM P, and 50 mM KNO3. […] The calculated OPN 1-149 isotherm was obtained by a separate fitting of the single isotherm employing a model with two pKs and association constants but keeping as many as possible of the constants from the casein model.
# [2] = SAXS of free OPN and OPN 1-149 (Guinier, worm-like chain model); type: physicochemical
# Method: In a SAXS experiment, wherein measurements were made on station 2.1 at the CCLRC Daresbury Laboratory, the normalised scattered intensity I(q) was measured. For a dispersion of isotropic, monodisperse particles, I(q) is related to the inter-particle structure factor, S(q) and the particle scattering factor P(q) by
# where N is the number of particles of mean excess scattering length density over the solvent Δ ρp, volume Vp and mass M. The scattering wave vector is q=4π sin θ/λo, where θ is half the scattering angle and λo is the wavelength of the X-rays. In a dilute solution where S(q)=1 and a fraction α′ of the peptide chains have formed a polydisperse distribution of nanoclusters, equation (22) becomes
# The molar volumes of the unphosphorylated residues were taken from Jacrot and Zaccai (Jacrot, B. & Zaccai, G. (1981). Determination of Molecular-Weight by Neutron-Scattering. Biopolymers 20, 2413-2426). The molar volume of ortho-L-phosphoserine was calculated from the unit cell volume of the amino acid, as determined by Sundaralingam (Sundaralingam, M. & Putkey, E. F. (1970). Molecular structures of amino acids and peptides. II. A redetermination of the crystal structure of L-O-serine phosphate. A very short phosphate-carboxyl hydrogen bond. Acta Crystallographica B26, 790-800) and 11 Å^3 subtracted to give the residue volume of 168.7 Å^3. The difference in residue volumes of serine and phosphoserine was then used to calculate a residue volume for phosphothreonine of 191.7 Å^3. The X-ray forward scattering amplitudes of the residues were calculated from the elemental compositions using atomic scattering factors. For OPN 16P 1-149 and OPN 28P 1-262, the scattering length densities in units of […] were calculated to be 12.56 and 12.48, respectively. For the nanoclusters prepared with OPN 16P 1-149 it was assumed that the phosphate moieties of the 10 phosphorylated residues found in the three PCs, were assigned to the core, giving ρshell=12.40×10^10 cm^−2. For the core, a hydrated CaP with the composition given by equation (2) gave ρcore=19.1×10^10 cm^−2. Radii of gyration of the whole protein and N-terminal polypeptide were independent of concentration in the range 5-15 mg ml^−1. For OPN the average of three determinations by the Guinier method was 5.50±0.17 nm and the corresponding value for OPN 1-149 was 2.17±0.24 nm. For OPN with 262 residues, equation (28) predicts a radius of gyration of 5.38 nm and for the N-terminal plasmin peptide of 149 residues, the predicted value is 3.84 nm.
# Random-coil behavior and the dimensions of chemically unfolded proteins. Proceedings of the National Academy of Sciences of the United States of America 101, 12491-12496). […]
# [3] = Fetuin A / casein phosphopeptide mixed nanoclusters, dynamic light scattering; type: physicochemical; settings: 66.4 mg ml^−1, Mg-free Buffer A, urea/urease method
# Method: Fetuin A was purchased from Sigma Aldrich as product no. F3004. […] The inventors determined the precipitation problem was much reduced at lower fetuin A concentrations so an approach was adopted in which mixed nanoclusters were prepared with casein phosphopeptides and a variable concentration of the fetuin A to recover the size of the fetuin nanoclusters by an extrapolation procedure from lower concentrations. The casein phosphopeptide mixture was supplied by Arla Ltd, Denmark as product Lacprodan 2090 (Na salt). […] The intensity weighted normalised distribution curves calculated by Laplace transformation of the correlation functions of the 6 samples, offset vertically for clarity (FIG. 18a) indicate a nanocluster peak of about 6 nm in accordance with previous work, but as the fetuin A concentration increased, a second peak became increasingly important at larger size. […] Although difficult to estimate exactly, on the basis of scattering by homogeneous spherical particles, the weight fraction of aggregated material in these experiments was calculated to be less than 1% in all cases. […]
substance,measurement,setting,value
"β-casein 1-25: 25 residue N-terminal bovine β-casein tryptic phosphopeptide (RELEELNVPGEIVESLSSSEESITR; also: phosphopeptide (4P), sites not given here; UniProt P02666 16-40, looked up, fragment)",effective pK of the isolated Pse residue,[1],6.0
same,pK of the cluster of three Pse residues,[1],7.2
"OPN: full length native bovine milk osteopontin, gel filtration fraction F2",Kuhn length from the worm-like chain model,[2]; fit of SAXS,1.74±0.14 nm
same,radius of gyration by the Guinier method,"[2]; free peptide, 5-15 mg ml^−1, average of three determinations",5.50±0.17 nm
same,Kuhn segment length b from equation (24),[2]; from radius of gyration,1.9 nm
"Fetuin A: purchased from Sigma Aldrich, product no. F3004, purity about 80-90%",nanocluster preparation with fetuin A alone,[3],a fraction of the product precipitated

# Reference: patent publication US20110117206A1, “PHOSPHOPEPTIDES AND USE OF THE SAME” (PLANT BIOSCIENCE LIMITED, priority 2008, published 2011)
